Data as given in article doi:10.1101/2025.03.17.643633 (bioRxiv, 2025).

Target: T1, TIE1 ectodomain, aa 21-760 (human, UniProt P35590-1 21-760)
T1 sequence: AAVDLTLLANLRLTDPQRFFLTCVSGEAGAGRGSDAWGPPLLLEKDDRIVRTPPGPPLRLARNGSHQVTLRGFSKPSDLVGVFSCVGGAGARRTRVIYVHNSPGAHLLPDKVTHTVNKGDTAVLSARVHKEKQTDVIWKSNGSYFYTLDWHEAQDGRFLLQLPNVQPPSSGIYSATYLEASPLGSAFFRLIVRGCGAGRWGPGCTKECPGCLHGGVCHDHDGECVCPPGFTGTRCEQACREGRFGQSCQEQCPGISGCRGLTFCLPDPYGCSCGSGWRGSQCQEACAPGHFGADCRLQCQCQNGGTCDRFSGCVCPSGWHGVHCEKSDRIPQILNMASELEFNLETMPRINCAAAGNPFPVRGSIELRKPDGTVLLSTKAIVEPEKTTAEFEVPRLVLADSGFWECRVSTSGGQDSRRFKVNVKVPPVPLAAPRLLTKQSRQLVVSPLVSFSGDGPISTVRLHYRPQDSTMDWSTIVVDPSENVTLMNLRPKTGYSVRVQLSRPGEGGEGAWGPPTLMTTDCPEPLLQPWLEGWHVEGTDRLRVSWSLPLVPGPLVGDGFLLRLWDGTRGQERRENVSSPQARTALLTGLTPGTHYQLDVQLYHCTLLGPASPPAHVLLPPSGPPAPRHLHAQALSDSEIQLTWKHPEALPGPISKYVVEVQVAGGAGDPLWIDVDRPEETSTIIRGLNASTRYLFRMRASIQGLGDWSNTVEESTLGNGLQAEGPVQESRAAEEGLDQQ
Test: SPR

B1: Human SVEP1-Strep II recombinant protein, CCP15 to CCP24, aa 2261-2890 (70 kDa version) (domain or fragment)
chain: PLDCGKPPPIQNGFMKGENFEVGSKVQFFCNEGYELVGDSSWTCQKSGKWNKKSNPKCMPAKCPEPPLLENQLVLKELTTEVGVVTFSCKEGHVLQGPSVLKCLPSQQWNDSFPVCKIVLCTPPPLISFGVPIPSSALHFGSTVKYSCVGGFFLRGNSTTLCQPDGTWSSPLPECVPVECPQPEEIPNGIIDVQGLAYLSTALYTCKPGFELVGNTTTLCGENGHWLGGKPTCKAIECLKPKEILNGKFSYTDLHYGQTVTYSCNRGFRLEGPSALTCLETGDWDVDAPSCNAIHCDSPQPIENGFVEGADYSYGAIIIYSCFPGFQVAGHAMQTCEESGWSSSIPTCMPIDCGLPPHIDFGDCTKLKDDQGYFEQEDDMMEVPYVTPHPPYHLGAVAKTWENTKESPATHSSNFLYGTMVSYTCNPGYELLGNPVLICQEDGTWNGSAPSCISIECDLPTAPENGFLRFTETSMGSAVQYSCKPGHILAGSDLRLCLENRKWSGASPRCEAISCKKPNPVMNGSIKGSNYTYLSTLYYECDPGYVLNGTERRTCQDDKNWDEDEPICIPVDCSSPPVSANGQVRGDEYTFQKEIEYTCNEGFLLEGARSRVCLANGSWSGATPDCVPVR
Kd: 62.5 nM
